The values below come from publication PMC9537018.

Data set [1] in a line: immunoblot of protein level, rescue by MG132 or CQ. As to conditions: glycan lost; control: untreated WT-SND1-EGFP. (In western blotting, separated proteins are transferred to a membrane and probed.)
Data set [2] in a line: confocal colocalisation with Golgi marker GM130. The settings on record: glycan lost; control: WT-SND1-EGFP.
Data set [3] in a line: confocal colocalisation with ER marker CNX. The settings on record: glycan lost; control: WT-SND1-EGFP.

B1: Staphylococcal nuclease domain-containing protein 1 (SND1): tunicamycin (protein)
parent chain: MASSAQSGGSSGGPAVPTVQRGIIKMVLSGCAIIVRGQPRGGPPPERQINLSNIRAGNLARRAAATQPDAKDTPDEPWAFPAREFLRKKLIGKEVCFTIENKTPQGREYGMIYLGKDTNGENIAESLVAEGLATRREGMRANNPEQNRLSECEEQAKAAKKGMWSEGNGSHTIRDLKYTIENPRHFVDSHHQKPVNAIIEHVRDGSVVRALLLPDYYLVTVMLSGIKCPTFRREADGSETPEPFAAEAKFFTESRLLQRDVQIILESCHNQNILGTILHPNGNITELLLKEGFARCVDWSIAVYTRGAEKLRAAERFAKERRLRIWRDYVAPTANLDQKDKQFVAKVMQVLNADAIVVKLNSGDYKTIHLSSIRPPRLEGENTQDKNKKLRPLYDIPYMFEAREFLRKKLIGKKVNVTVDYIRPASPATETVPAFSERTCATVTIGGINIAEALVSKGLATVIRYRQDDDQRSSHYDELLAAEARAIKNGKGLHSKKEVPIHRVADISGDTQKAKQFLPFLQRAGRSEAVVEYVFSGSRLKLYLPKETCLITFLLAGIECPRGARNLPGLVQEGEPFSEEATLFTKELVLQREVEVEVESMDKAGNFIGWLHIDGANLSVLLVEHALSKVHFTAERSSYYKSLLSAEEAAKQKKEKVWAHYEEQPVEEVMPVLEEKERSASYKPVFVTEITDDLHFYVQDVETGTQLEKLMENMRNDIASHPPVEGSYAPRRGEFCIAKFVDGEWYRARVEKVESPAKIHVFYIDYGNREVLPSTRLGTLSPAFSTRVLPAQATEYAFAFIQVPQDDDARTDAVDSVVRDIQNTQCLLNVEHLSAGCPHVTLQFADSKGDVGLGLVKEGLVMVEVRKEKQFQKVITEYLNAQESAKSARLNLWRYGDFRADDADEFGYSR
Consider B1, for which the degradation_or_half_life result in data set [1] is listed as “decreases”.

B2: Staphylococcal nuclease domain-containing protein 1 (SND1): N416Q (protein)
parent chain: B1 parent chain
For B2, the localisation_or_trafficking result in data set [2] and in data set [3] was “no change” each time.

B3: Staphylococcal nuclease domain-containing protein 1 (SND1): N168Q (protein)
parent chain: B1 parent chain
Take B3: the localisation_or_trafficking result in data set [2] and in data set [3] was “no change” in each case.

B4: Staphylococcal nuclease domain-containing protein 1 (SND1): N283Q (protein)
parent chain: B1 parent chain
As to B4, the localisation_or_trafficking result in data set [2] and in data set [3] was “no change” in each case.

B5: Staphylococcal nuclease domain-containing protein 1 (SND1): N50Q (protein)
parent chain: B1 parent chain
As to B5, the degradation_or_half_life result in data set [1] is “decreases”. The localisation_or_trafficking result in data set [2] is “decreases”; in data set [3], “increases”.
